Laboratory results from patent publication US20240343798A1 (GV20 THERAPEUTICS, published 2024).

B4: KLRC1/KLRD1 heterodimeric receptor (receptor)
chain 1: not shown
chain 2: MAVFKTTLWRLISGTLGIICLSLMSTLGILLKNSFTKLSIEPAFTPGPNIELQKDSDCCSCQEKWVGYRCNCYFISSEQKTWNESRHLCASQKSSLLQLQNTDELDFMSSSQQFYWIGLSYSEEHTAWLWENGSALSQYLFPSFETFNTKNCIAYNPNGNALDESCEDKNRYICKQQLI
notes: whole, on cells; CT26 cells co-transduced with both lentiviral constructs; also called KLRC1&D1 heterodimer; KLRC1/D1

Tests used:
[1] = molecular target: T1, IGSF8 protein without D1 domain (UniProt Q969P0 150-579, limits assumed); test: flow cytometry, CT26 cells expressing IGSF8-D24 (IGSF8 without D1)
T1 construct: domain: D2-D4 (without D1); also called D24; D2-4
T1 sequence (looked up): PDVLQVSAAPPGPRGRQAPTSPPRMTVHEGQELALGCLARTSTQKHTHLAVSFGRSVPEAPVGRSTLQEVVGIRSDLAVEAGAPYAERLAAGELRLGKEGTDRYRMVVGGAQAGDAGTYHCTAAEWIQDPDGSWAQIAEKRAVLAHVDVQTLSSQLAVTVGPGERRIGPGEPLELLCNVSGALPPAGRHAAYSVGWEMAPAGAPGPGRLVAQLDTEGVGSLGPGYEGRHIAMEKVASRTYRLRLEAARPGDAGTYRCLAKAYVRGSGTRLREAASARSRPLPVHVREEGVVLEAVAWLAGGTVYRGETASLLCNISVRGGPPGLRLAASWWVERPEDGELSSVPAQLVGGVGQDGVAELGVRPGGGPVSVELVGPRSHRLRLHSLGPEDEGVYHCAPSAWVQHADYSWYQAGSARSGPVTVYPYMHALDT

[2] = molecular target: T2, recombinant human IGSF8 extracellular domain tagged by a human Fc region (IGSF8-hFc) (human, UniProt Q969P0 28-579); test: flow cytometry, IGSF8-hFc on CT26 cells with single-domain KIR3DL1/2 constructs, MFI normalized to Thy1.1
T2 construct: extracellular domain; also called IGSF8-Fc; IGSF8 hFc fusion protein; not shown: human Fc region
T2 sequence (looked up): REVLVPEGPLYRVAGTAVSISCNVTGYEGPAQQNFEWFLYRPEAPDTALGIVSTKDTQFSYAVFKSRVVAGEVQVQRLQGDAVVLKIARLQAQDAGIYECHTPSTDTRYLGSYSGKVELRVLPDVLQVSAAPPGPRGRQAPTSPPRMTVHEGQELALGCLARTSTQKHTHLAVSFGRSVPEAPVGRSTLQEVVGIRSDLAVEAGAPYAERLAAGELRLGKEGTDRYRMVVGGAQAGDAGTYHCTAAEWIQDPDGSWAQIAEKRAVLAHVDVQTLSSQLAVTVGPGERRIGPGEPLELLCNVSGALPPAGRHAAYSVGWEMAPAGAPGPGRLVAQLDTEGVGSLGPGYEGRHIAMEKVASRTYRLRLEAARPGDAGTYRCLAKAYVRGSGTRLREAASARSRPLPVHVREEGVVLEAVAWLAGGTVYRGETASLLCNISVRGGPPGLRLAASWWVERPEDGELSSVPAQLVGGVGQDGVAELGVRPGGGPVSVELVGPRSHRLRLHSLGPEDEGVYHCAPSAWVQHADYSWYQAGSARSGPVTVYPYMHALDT

KIR3DL1 = molecular target: T3, KIR3DL1 (human, UniProt P43629 22-444); test: flow cytometry, hFc fusion proteins on transduced CT26 cells, MFI normalized
T3 construct: whole, on cells; On mouse CT26 cells, lentiviral vector with a thy1.1 tag; also called KIR3DL1/2
Method: (§1) For this experiment, different human KIR receptors (KIR2DL1, KIR2DL2, KIR2DL3, KIR2DL4, KIR2DL5A, KIR2DL5B, KIR3DL1, KIR3DL2, KIR3DL3) were first cloned into a proprietary lentiviral vector containing a thy1.1 tag (FIG. 17A). Then mouse CT26 cells, were transducted by these lentiviral constructs, and IGSF8 binding was tested with biotin-labelled recombinant IGSF8 hFc fusion protein. The mean fluorescence intensity (MFI) of IGSF8 binding to different CT26 cells were normalized by the expression of different KIRs on CT26 cells using an anti-thy1.1 mAb (Biolegend) via flow cytometry.
(§2) KLRC1 also contains a ITIM motif in its intracellular domain, and was known to be a inhibitory receptor of NK or CD8⁺ T cells as part of a heterodimer with KLRD1 on the cell surface. […] Specifically, 100,000 CT26 cells overexpressing the antigens (KIRs or KLRs) were washed with PBS buffer containing 2% FBS, and incubated with 100 μL IGSF8 recombinant proteins or antibodies (5 μg/mL) for 30 minutes on ice. Cells were then washed twice with wash buffer, and incubated with 100 μL of 1:100 anti-human Fc-PE antibody for 15 minutes on ice. Cells were washed twice with wash buffer and analyzed on a FACS analyzer (CytoFlex, Beckman). In these experiments, the mean fluorescence intensity (MFI) of IGSF8 binding to different CT26 cells were normalized by the expression of different KLRs on CT26 cells using an anti-thy1.1 mAb via flow cytometry.

KIR3DL2 = molecular target: T4, KIR3DL2 (human, UniProt P43630 22-455); test: as above
T4 construct: whole, on cells; On mouse CT26 cells, lentiviral vector with a thy1.1 tag; also called KIR3DL1/2
Method: as §1, §2

[3] = molecular target: B4; test: as above
Method: as §1, §2

[4] = molecular target: T5, human IGSF8 expressed on the cell surface (human, UniProt Q969P0 28-613); test: cell-cell conjugate assay, labelled MC38 and CT26 cells mixed 1:1, flow cytometry
T5 construct: whole, on cells; Forced expression on CT26, MC38 or K562 cells; endogenous on A431 cells; also called full-length IGSF8
T5 sequence (looked up): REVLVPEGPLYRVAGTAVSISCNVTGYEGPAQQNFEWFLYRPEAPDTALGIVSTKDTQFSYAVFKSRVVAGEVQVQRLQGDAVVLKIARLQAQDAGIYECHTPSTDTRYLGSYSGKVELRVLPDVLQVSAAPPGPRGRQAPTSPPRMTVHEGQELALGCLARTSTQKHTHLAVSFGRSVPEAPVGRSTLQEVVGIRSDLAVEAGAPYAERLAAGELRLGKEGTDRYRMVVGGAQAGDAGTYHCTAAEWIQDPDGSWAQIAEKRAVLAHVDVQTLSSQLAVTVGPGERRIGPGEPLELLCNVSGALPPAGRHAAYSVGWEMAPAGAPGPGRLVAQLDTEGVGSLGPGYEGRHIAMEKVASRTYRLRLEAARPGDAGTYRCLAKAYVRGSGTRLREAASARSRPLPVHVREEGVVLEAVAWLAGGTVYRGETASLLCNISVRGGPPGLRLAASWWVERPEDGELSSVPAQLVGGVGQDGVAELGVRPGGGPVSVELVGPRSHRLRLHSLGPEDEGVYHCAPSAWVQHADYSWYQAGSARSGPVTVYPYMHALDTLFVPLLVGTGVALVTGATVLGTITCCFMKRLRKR
Description: A competition assay (FIG. 23A) was then designed to test whether these seven mAbs block IGSF8 binding to the KIR3DL1/2 or the KLRC1&D1 heterodimer receptors. MC38 cells (a cell line derived from C57BL6 murine colon adenocarcinoma cells from NIH) with forced expression of IGSF8 protein on cell surface by lentiviral delivery of a human IGSF8-expression construct were labeled with CFSE (Carboxyfluorescein succinimidyi ester, Thermo). CT26 cells with forced expression of either KIR3DL1/2 or KLRC1&D1 were labeled with CellTrace Far Red (Thermo). The MC38 cells were then mixed at a 1:1 ratio with the CT26 cells for about an hour at room temperature. The formation of MC38 and CT26 cell/cell conjugates was assessed by flow cytometry.

[5] = molecular target: T2, recombinant human IGSF8 extracellular …; test: flow cytometry, IGSF8-hFc on transduced CT26 cells, MFI normalized to Thy1.1 expression
Method: as §2

T4 sequence (P43630 22-455): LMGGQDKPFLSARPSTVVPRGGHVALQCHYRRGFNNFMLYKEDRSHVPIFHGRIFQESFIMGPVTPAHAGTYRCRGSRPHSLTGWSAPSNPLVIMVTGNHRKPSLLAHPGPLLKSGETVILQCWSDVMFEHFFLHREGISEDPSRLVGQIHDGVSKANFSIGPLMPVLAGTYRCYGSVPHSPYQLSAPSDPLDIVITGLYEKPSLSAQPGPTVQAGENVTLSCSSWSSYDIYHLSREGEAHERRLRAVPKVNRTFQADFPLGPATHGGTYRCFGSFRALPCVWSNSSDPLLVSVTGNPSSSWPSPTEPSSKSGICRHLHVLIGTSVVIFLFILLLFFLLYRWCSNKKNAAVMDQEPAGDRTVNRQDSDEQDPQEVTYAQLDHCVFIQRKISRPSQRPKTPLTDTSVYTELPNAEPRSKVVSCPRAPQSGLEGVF
T3 sequence (P43629 22-444): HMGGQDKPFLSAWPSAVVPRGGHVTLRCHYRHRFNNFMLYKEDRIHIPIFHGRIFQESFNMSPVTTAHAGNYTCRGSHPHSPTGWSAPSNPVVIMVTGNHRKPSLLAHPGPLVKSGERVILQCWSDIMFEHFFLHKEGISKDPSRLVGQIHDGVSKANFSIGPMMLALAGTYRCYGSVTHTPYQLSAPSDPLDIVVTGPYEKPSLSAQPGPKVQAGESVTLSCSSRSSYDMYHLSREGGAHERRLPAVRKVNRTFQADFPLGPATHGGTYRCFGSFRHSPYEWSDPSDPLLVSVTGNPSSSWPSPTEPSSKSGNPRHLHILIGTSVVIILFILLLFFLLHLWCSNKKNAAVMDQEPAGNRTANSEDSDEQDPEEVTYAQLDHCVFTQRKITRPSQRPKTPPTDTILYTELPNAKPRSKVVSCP

B1: Antibody C30 (B34) (antibody, human IgG1, V domains shown)
VH: EVQLLESGGGLVQPGGSLRLSCAASGFTFSSYAMSWVRQAPGKGLEWVSGITGSGGSTYYADSVKGRFTISRDNSKNTLYLQMNSLRAEDTAVYYCARGRQVDKWGQGTLVTVSS
VL: DIMLTQSPSSLSASVGDRVTITCRASQSIHNYLNWIQQTPGKAPKLLVFAASTLQRGVPPRYSGRGSGTEFTLTISSLQPEDFATYYCQQSYTTPLTFGGGTKVEIRR
notes: Fully human, expressed in CHO cells; also called mAb-B34 (C30)
- binding result [1]: no binding

B2: KIR3DL2 D3 construct (receptor, human, UniProt P43630 222-316, looked up)
chain: EKPSLSAQPGPTVQAGENVTLSCSSWSSYDIYHLSREGEAHERRLRAVPKVNRTFQADFPLGPATHGGTYRCFGSFRALPCVWSNSSDPLLVSVT
notes: domain: D3; On CT26 cells, thy1.1 tag vector; also called D1/D3 construct
- binding result [2]: no binding

B3: D1 domain of IGSF8 protein (ligand, UniProt Q969P0 28-149, looked up)
chain: REVLVPEGPLYRVAGTAVSISCNVTGYEGPAQQNFEWFLYRPEAPDTALGIVSTKDTQFSYAVFKSRVVAGEVQVQRLQGDAVVLKIARLQAQDAGIYECHTPSTDTRYLGSYSGKVELRVL
notes: domain: D1; also called D1 (Ig-V set) ECD of IGSF8
- binding result (KIR3DL1): binds
- binding result (KIR3DL2): binds
- binding result [3]: binds

Binder: B4
- binding result [4]: binds
- binding result [5]: binds

B5: KIR3DL1 D3 construct (receptor, human, UniProt P43629 222-316, looked up)
chain: EKPSLSAQPGPKVQAGESVTLSCSSRSSYDMYHLSREGGAHERRLPAVRKVNRTFQADFPLGPATHGGTYRCFGSFRHSPYEWSDPSDPLLVSVT
notes: as for B2
- binding result [2]: no binding
